Test results taken from the supplement of paper PMC11908140.

B1: library; numbered along this chain (parent)
chain: MRKPRAAVGSGHRKQAASQEGRQKHAKNNSQAKPSACDGLARQPEEVVLQASVSSYHLFRDVAEVTAFRGSLLSWYDQEKRDLPWRRRAEDEMDLDRRAYAVWVSEVMLQQTQVATVINYYTGWMQKWPTLQDLASASLEEVNQLWAGLGYYSRGRRLQEGARKVVEELGGHMPRTAETLQQLLPGVGRYTAGAIASIAFGQATGVVDGNVARVLCRVRAIGADPSSTLVSQQLWGLAQQLVDPARPGDFNQAAMELGATVCTPQRPLCSQCPVESLCRARQRVEQEQLLASGSLSGSPDVEECAPNTGQCHLCLPPSEPWDQTLGVVNFPRKASRKPPREESSATCVLEQPGALGAQILLVQRPNSGLLAGLWEFPSVTWEPSEQLQRKALLQELQRWAGPLPATHLRHLGEVVHTFSHIKLTYQVYGLALEGQTPVTTVPPGARWLTQEEFHTAAVSTAMKKVFRVYQGQQPGTCMGSKRSQVSSPCSRKKPRMGQQVLDNFFRSHISTDAHSLNSAAQ

Variants of: B1
Assay: 8OG:A repair function score (normalized; synonymous = 0, nonsense = -1) (normalized log-likelihood score); higher = more repair activity (WT-like)
Details: with 8OG:A DNA repair reporter (GFP) in HEK-293 MUTYH KO cells
Method in brief: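 GFP+ (repair) and GFP− bins of viable mCherry+ cells were collected at 72 h from MUTYH knockout HEK-293 cells bearing lentiviral MUTYH cDNA NNN codon-scan libraries in 10 pg/ml doxycycline, co-transfected with an 8OG:A GFP repair reporter and mCherry. Tile amplicons were sequenced, and per-tile Rosace fitness scores were normalized to a repair function score anchored on synonymous and nonsense distributions. Synonymous medians were set to 0 and nonsense to -1, with variants under 300 counts per million at the start removed.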
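Further: cells sorted at 72 h after reporter transfection.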

| Variant | 8OG:A repair function score |
| --- | --- |
| V284S | -0.0426 |
| Q159W | 0.287 |
| Q159H | 0.0232 |
| E341S | -0.0269 |
| E341N | -0.0613 |
| S74C | -0.0037 |
| S74M | 0.00605 |
| D94F | -0.287 |
| T228S | 0.124 |
| R398N | -0.285 |
| R398D | -0.249 |
| L149T | -0.81 |
| R81P | -0.88 |
| W146I | -0.138 |
| W146H | -0.738 |
| S459R | -1.13 |
| Q113G | -0.109 |
| W447Q | -1.16 |
| T116E | -0.305 |
| T122H | 0.0576 |
| T122Q | 0.0683 |
| R42A | 0.112 |
| S487W | -0.00878 |
| S487Y | 0.00217 |

| Variant | 8OG:A repair function score |
| --- | --- |
| Q50W | 0.014 |
| Q50R | 0.0284 |
| H172V | 0.0577 |
| Q310S | -0.0462 |
| Q310G | -0.0488 |
| A63H | -0.0822 |
| K333S | -0.141 |
| K333G | -0.131 |
| S270E | -0.0683 |
| S270Q | 0.028 |
| P306A | -0.0211 |
| P306H | -0.0537 |
| P306W | -0.009 |
| A196K | -0.993 |
| S483R | 0.0251 |
| S483H | 0.00458 |
| L109T | -0.266 |
| F453M | -0.51 |
| Q126K | 0.0876 |
| P225F | -0.222 |
| P225Y | 0.0138 |
| T130L | -0.336 |
| T130P | -0.9 |
| P494L | -0.00201 |

| Variant | 8OG:A repair function score |
| --- | --- |
| P494W | -0.0155 |
| P494F | -0.0209 |
| A135K | -0.317 |
| A101T | -0.047 |
| A101M | -0.0323 |
| T439N | -0.0163 |
| V379D | -0.793 |
| G258K | -1.14 |
| G258E | -1.27 |
| S226R | 0.00193 |
| A513Y | -0.00892 |
| A513I | 0.00892 |
| V53T | -0.0126 |
| S227F | -0.188 |
| S227N | 0.126 |
| S227G | -0.0911 |
| W235H | -0.343 |
| W235E | -0.204 |
| R279I | -0.172 |
| A461Q | -0.495 |
| Q144A | -0.134 |
| Q470R | -0.00198 |
| Q470I | 0.00254 |
| S335F | -0.0626 |

| Variant | 8OG:A repair function score |
| --- | --- |
| N366V | -0.0917 |
| V438Y | -0.0793 |
| G353Q | -0.109 |
| D249T | -0.459 |
| R97E | 0.00633 |
| E385V | -0.0807 |
| E385R | -0.0734 |
| S231G | -0.125 |
| V327Y | -0.526 |
| V48W | 0.0774 |
| G248R | -0.738 |
| Q472E | -0.00354 |
| A115W | -0.182 |
| V441Q | -0.259 |
| V441S | -0.0467 |
| S518E | 0.0194 |
| E141M | -0.111 |
| Q286D | -0.0961 |
| Q286T | -0.00617 |
| L72H | -1.08 |
| L72Y | -1.03 |
| L131C | -0.139 |
| D133Y | -0.727 |
| H312K | 0.0995 |

| Variant | 8OG:A repair function score |
| --- | --- |
| A89S | 0.00694 |
| L387V | -0.0288 |
| L387C | -0.171 |
| Q473L | -0.0116 |
| P437W | 0.078 |
| P437K | -0.15 |
| V362A | -0.284 |
| L215T | -0.86 |
| P402V | -0.0663 |
| M462Y | -0.369 |
| M462Q | -0.198 |
| R246G | -0.845 |
| P316R | -0.109 |
| P352D | -0.0437 |
| G209F | -0.839 |
| M478C | 0.0262 |
| V107A | 0.0286 |
| V107F | -0.314 |
| Q271D | -0.0548 |
| Q271C | -0.0175 |
| V206C | -0.0127 |
| L229D | -0.158 |
| R336P | -0.136 |
| L430P | -0.888 |

| Variant | 8OG:A repair function score |
| --- | --- |
| I221F | -0.597 |
| P44H | -0.0386 |
| P44W | -0.102 |
| W75S | -1.58 |
| A41H | -0.0884 |
| G368H | -0.275 |
| V301N | -0.386 |
| S276Q | 0.0194 |
| A519M | -0.00851 |
| A238N | -0.887 |
| R491I | 0.0211 |
| C304P | -0.398 |
| D61M | -0.00523 |
| D61V | -0.137 |
| D61Q | -0.0778 |
| S153W | -0.198 |
| E160F | -0.0745 |
| E160Q | 0.018 |
| E160A | 0.0427 |
| E160S | -0.0339 |
| T440A | -0.131 |
| E342A | -0.0199 |
| C216E | -0.808 |
| A291N | 0.0139 |

| Variant | 8OG:A repair function score |
| --- | --- |
| P339Q | -0.0157 |
| R281N | -0.0901 |
| W374D | -0.78 |
| W374T | -1.02 |
| N119G | 0.0963 |
| E433T | -0.00904 |
| V166E | -0.327 |
| A192R | -0.901 |
| A192G | -0.105 |
| A192E | -0.908 |
| R446Y | -0.414 |
| R446D | -0.442 |
| E319C | -0.02 |
| E319R | 0.0109 |
| A99H | -1.07 |
| P247C | -0.799 |
| Y120H | -0.238 |
| A162W | -0.917 |
| A162K | -1.03 |
| A162T | -0.155 |
| T179C | -0.0042 |
| T179N | -0.0369 |
| A457Q | -0.402 |
